Results published in patent publication US20130089496A1.

Key:
[1] = molecular target: FcγRIIIa, V allele at position 158, on NK cells homozygous for V (human) (UniProt P08637); test: cell-based or functional assay
[2] = molecular target: FcγRIIIa, F allele at position 158, on NK cells homozygous for F (human) (UniProt P08637); test: cell-based or functional assay

Row | Substance | Inhibition of ADCC (cetuximab-mediated ADCC of A431 cells by NK cells) [1] | Inhibition of ADCC (trastuzumab-mediated ADCC of SKBR-3 cells by NK cells) [1] | Inhibition of ADCC (cetuximab-mediated ADCC of A431 cells by NK cells) [2] | Inhibition of ADCC (trastuzumab-mediated ADCC of SKBR-3 cells by NK cells) [2]
1 | aggregated IgG1 expressing GM 3+,1-,2- allotypes (antibody) | 79.4% | 97.4% | 76.5% | 94.5%
2 | aggregated IgG1 expressing GM 17+,1+,2+ allotypes (antibody) | 83.3% | 73.8% | 50.3% | 27.8%
